From the DeepSol protein solubility set

Assay: soluble on expression in E. coli; label from the status in PepcDB or PDB records

## MSSHENDTPLPVPYTSRLGQPLDAGQTLNVHGKINEGAQVAEINLLQGGGEIGPNTQVILHLKLNFKEKKVILNSYENGVWGKEERESLPFQAGQEFDLRIRVLDEGLEISADNKKIHEFKHRLPFQSIEYLSVRGDLSLNGIHWGGRFYKLPWETAFPAGFLEKGQRVHLYGIPKGDRWSLDLVARNQDILFHFNPRIKDKAVVRNSHRNGFWDTEEREGGFPFKKDVGFDLTIVNEEYSIQIFINRERFGTFQHRTQNPIGDYIGLRIDGEVEVTGIEFSH
  soluble on expression in E. coli: soluble

## MAKASSSFVCQNCGAAFNRWQGKCEACGEWNTLVEEAGDNAVPVSIRAKRRGRTFKLESLAGKSNDAPRLPSGMAELDRVTGGGFVRGSVLLVGGDPGIGKSTLLTQATSLMAKAGHRTVYISGEEAIAQVRLRAERLGLASAPVELAAETSVEDIVATLSEGATPKLIVIDSIQTMWTDTVESAPGTVTQVRASAQALIRFAKKTGAAIILVGHVTKDGQIAGPRVVEHMVDAVLSFEGEGSQQFRILRSVKNRFGPTDEIGVFEMTGLGLREVSNPSELFLSERDLGSPGTAVFAGIEGTRPVLVELQALVAPSTLGTPRRAVVGWDSARLSMVLAVLEAHCGVKLSGYDVYFNVAGGLRINEPAADLAAAAALVSSLANAPLPTDAVYFGEISLSGAVRPVAQTPARLKEAAKLGFARAVLPEQTRGEAPADAGLALQSVGGLSSLVADIAARGTRRGDDDGAPRTKAASNATPARFRRQEALEHHHHHH
  soluble on expression in E. coli: soluble

## MSKTVLILGAGVGGLTTADTLRQLLPPEDRIILVDRSFDGTLGLSLLWVLRGWRRPDDVRVRPTAASLPGVEMVTATVAHIDIAAQVVHTDNSVIGYDALVIALGAALNTDAVPGLSDALDADVAGQFYTLDGAAELRAKVEALEHGRIAVAIAGVPFKCPAAPFEAAFLIAAQLGDRYATGTVQIDTFTPDPLPMPVAGPEVGEALVSMLKDHGVGFHPRKALARVDEAARTMHFGDGTSEPFDLLAVVPPHVPSAAARSAGLSESGWIPVDPRTLSTSADNVWAIGDATVLTLPNGKPLPKAAVFAEAQAAVVAHGVARHLGYDVAERHFTGTGACYVETGDHQAAKGDGDFFAPSAPSVTLYPPSREFHEEKVAQELAWLTRWKTLEHHHHHH
  soluble on expression in E. coli: not soluble

## MGSDKIHHHHHHMETKDLIVIGGGINGAGIAADAAGRGLSVLLLEAQDLACATSSASSKLIHGGLRYLEHYEFRLVSEALSERETLLKMAPHIIFPMRFRLPHQPHLRPAWMIRIGLFMYDNIGKRVSLPASKGLKFGADSVLKPELKQGFEYSDCWVDDARLVVLNAQEVAKRGGEVRTRTKVTRARREQGVWIVDAVDSLTGETFTWRAKGLVNATGPWVKEFFDDGLQLKSPYGIRLIKGSHIVVPRVHNQPQAYILQNKDHRIVFVIPWQDDYSIIGTTDVEYKGNPHDVKIDDNEVGYLLDVYNDHFKQQLTRDDIVWTYSGVRPLCDDESDSPQAITRDYTLSVDDDNGQAPLLSVFGGKLTTYRKLAEHALDKLHKYYPQAGKAWTKDAVLPGGDIAGTRDDYAAALRRRFNLPESLTRRYSRTYGSNSELILANVKGLSDLGEDFGHDLYEAELRYLVEKEWAVTLDDVIWRRTKLGMRFDDAQKQRISDWLVSYRQQQMAKAG
  soluble on expression in E. coli: not soluble

## MQDEVETEVIIKDIFKQGKICFIPQYQFQSNHMDMVRLTSPEEIALLPKTSWNIHQPGEGDVREEALSTGGLDLIFLPGLGFDKDGNRLGRGKGYYDTYLKRCVQHQEVKPYTMALAFKEQICPQIPVDEHDMKVDEVLYEDSPAS
  soluble on expression in E. coli: soluble

## MGSDKIHHHHHHMRDNMSRLEDLEAFIHIAESGSLTRAATRLNRSLQAVSRSLTSLEVDVGLQLVHRTTRHSALSEAGQAFYRRVKPAVLEIREAQLEAAGRRTGPSGILRVGAPMLFGPDFLVPIVAEYIESYPQAEVDLSLTDAFVDLASKGIDVVVRIADLPDSNLQSKRLGALRRVVFGAPSYFARNGRPEHPAELRQHACIVRTIGNRPGQWAFQIDGKRRMVGVRGSFRSNAMAAIYSAVRSGLGLGYSPLWQIRHLVDAGQVEIVLQEFEPKPVPIHALWQESTRPPAKVRAFVDLLAMRLRLDDL
  soluble on expression in E. coli: not soluble

## MGSDKIHHHHHHMRRVISIFRKLSAVYCHTGNFAEGIRVCKYALGRFTEMEDKYKCIFTFNMSLYYNYLGEYGKALNAITGFESVIKATYEDRYYKVLLLKADCYYGAERYAESLSIYNKLISITLKDDFNNLCVYYNNMTQVYLRMGKRDMAVNCINTVINNLHNISDDFEALPQIYAELGKSYLMMADNDKSIKYLTIALKLSKDFKYYSVTKDILNELSKIKGNSNKLKLKDEFIILTENMGRSYDSLNHSLVFNIIQYYTRLGDVASINELCEYCKERKVG
  soluble on expression in E. coli: not soluble

## STEESMYTQIIKELPREGSSDVLVIKNEHVKKSDIWPSGGEMVVKDLTVKYMDDGNAVLENISFSISPGQRVGLLGRTGSGKSTLLSAFLRMLNIKGDIEIDGVSWNSVTLQEWRKAFGVITQKVFIFSGTFRQNLDPNGKWKDEEIWKVADEVGLKSVIEQFPGQLNFTLVDGGYVLSHGHKQLMCLARSVLSKAKIILLDQPSAHLDPITYQVIRRVLKQAFAGCTVILCEHRIEAMLDCQRFLVIEESNVWQYDSLQALLSEKSIFQQAISSSEKMRFFQGRHSSKHKPRTQITALKEETEEEVQETRL
  soluble on expression in E. coli: not soluble

## MSDSSHAFSATERAAVYRAIAERRDMRHFSGGSVAPELLARLLEAAHQAPSVGLMQPWRFIRITEPALRRAIHGLVEEERGRTAEALGERSDEFMRLKVEGVLDCAELLVAALMDDRERHVFGRRTLPQMDLASLACAIQNLWLASRAEGLGMGWVSLFDPAALGELLGLPPGSEAVAVLCLGPVAEFYPAPMLALEGWSEPRPLAELVYQNRWGERA
  soluble on expression in E. coli: not soluble

## MTAHPQEDHYKYKKVISIGVVSELTGLSQRQIRYYEERKLVFPDRSRGIRKYSFADVEQLMKIANQREEGVSTWEIRQEMTKELRERMLKGQMNAHFRRRS
  soluble on expression in E. coli: not soluble

## MNKELQPKVVFLMGPTASGKTALALELAEKHNCEIISVDSALIYRGMDIGSAKPSAEELARGPHRLIDIRDPSESYSAADFRADALSEIEQIISMGKTPLLVGGTMMYFKALLEGLSPLPSADEVIRADIQAEADANGWEALHDQLREIDPVSAERIHPNDPQRLSRALEVYRISGKSLTELTMTKSAPLPYNVVQFAIAPRERKVLHELIGQRFRIMLEQGFIDEVAQLKARDDLHLDLPSMRCVGYRQCWQYLDGEFDHDTMVEKAIAATRQLAKRQLTWLRSWPELNWLESGAEGNLVTLMRHCRLEHHHHHH
  soluble on expression in E. coli: soluble

## MAHHHHHHMTTMARVDETLARFKGKSPRDSYKQVCGELDVHMQREIYAALPEKPMAWHHIYTLDLEKALLGTKGCMAMLPLITVSTSMRKLSLRSCGLSDEFVIQLCAVLQSHPSLRSVDISDNELVTVYSAPHIISVMRNNSNMVLFDVYNTHVGSNVGDIIAKLGQRNLDNVLHYYEDRYFRMKNLFNYMDADGTGWVVLKSLVLNCPYPVLQEQFVERIATKQPRKRSDNTISINTFLQLVYMNYKTEAEIGTYSNKTIDEPYVFMVANWKQLLYAVERYNARAAAMGDGQGPHPPVQLPDNFHRWRLRDYIITPDDADALVEGAVQLIEHSSAMAEGEPELNESGERAEPDAEVDSDKETAENAAEAAPLVIPITILLRAAKSVLVLPPSVAKPSYSFYTDRDAAYVPEILRNGSRLFSVSRLSCLFSGGASTTGDSASSPDVLQDSADRPHTFSLPASVVKMVVDFFNKEHKKLPTKKQSMIPDSPQTRRDKAMEKAAIPVPTFLSAEFVSDLERVCPRFLADYYSRHALLIEDGTITLQEMVNVLDEMYAQCRIDRIISLADIKAMPDPMKDKSLVSFVTAHFADRDEDISFLEPFNDVVAY
  soluble on expression in E. coli: soluble

## MRNVFCIGELLIDFVCRNTNVSLVNGSNFEKKAGGAPANVAAAITKLGGHATFMGQVGNDPFGEFLEQTLQHAHVDTSMLIKDKQTTLAFVSIDQNGERDFTFMRGADGEYHFNSIDLSKIKTNDLIHFGSATALLSSPLKDTYFQLLQHARESGQFISFDPNYRNALITNTEQFIQDCLTFIKHAHFVKVSQEEAIMLSKESDLQQSALKLLNHGAKAVAITLGKDGTLLATKDKQTIVPSISIQQVDTTGAGDAFVGAMLYQIAKSEQMFLHNFEGLTTFISFANKVGALTCTNYGAISSLPSLTDVKAYE
  soluble on expression in E. coli: not soluble

## DDHSRALGRTTVNSNLGQGQVSGAESGAKTAEPAWIDFMQVALEGKPEQGKNIPDDIVRVRIDRNSGLLTHKVDSTSMFEYFEKGTEPTEYVGNSLEDSIYSSGSGGTTEELF
  soluble on expression in E. coli: not soluble

## MGSDKIHHHHHHMPQFSPSYSFPVQIYYEDTDFSGVVYHPNFLKYFERAREHVIGAEQLRNLWQQQQLGFAVYRSDMLCHEGVEFADIIDIRTKFYFESKYRTVWHQEIWRPNGKKPAVTATIEMVCMNQARQLAPMPAELITQLSLGM
  soluble on expression in E. coli: not soluble

## MGSDKIHHHHHHMRLDSISIANFRNHTLLEFEPGHSITNIYGRNGSGKTSILEAIHYCALTRGFSGNNDREYLKFGEELFTIRSSFTSGQGIATKVSITYSPKREKRILVNEQELQTFSSHIGTIPCVTFTPREMVIINGAPAERRRFIDTAICQYDRKYLSDLLLYRRILQQRNALLSSEQDPRVIDSALDVLTDQLVAIATEIVLVRKRFIEHFTSMLGGVYQWIPEGAEPSILYQSSLGHHENLYEKDKIQQVFRERFETLKQQELQRRQTLAGPHRDDLQFYLNKREIRKYASQGQQRAFLVAMKMTLQGYLYEASGEIPITLLDDLFSELDEVVSGTMVETLATKGQVIITSTEKKKGKGISFFSVDDYKSSKEP
  soluble on expression in E. coli: not soluble

## MGSDKIHHHHHHMQLEVMEHYGIIKYFRDADYFETEHQRRIFNQLKKVIPEGQLIALSGVVGSGKTTTLSRLQDLLAKEKKVIVAKSLSVEKTKTNLGTLITALFYDVSGDKDYRVPKLGEKRERELRDLIQDVKKPVVLLVDEAHDLHHRTLTGLKRLMEVIRDGGGKLSILLAGHPKLKNDLKGPTMEEVGYRTIVVSLDAMQGNLREYVYWLLDNCTDDKTKPTDVIEEQAIDYLVERLTTPLQIEQHLSLALEEGFNVGVKPITVDVLDLTLSRRINDIEPRLIRHGYSEKVLVDQFHYKPAELRKFFKGELDANRVKEITQDLREAGLPI
  soluble on expression in E. coli: not soluble

## MGHHHHHHSHMAESHPWSGRPSSSPRRSSTFANYAWKHTIKPNRILIRNARPLVINFATDRLPIIKPVDQIILEDAGTVGSALNLPSESICTRPGLLLFGHYNNDVPVTPLVDFKPDEPLQVVLTAHKTIVVPPGEFVMIIVCVNFEKIKSLDLIIHEMSTSNIPLPPTCGQTFKNFNTATPSLEIYGDVIECNDDQKTCVFTAVFPGLHRRCSLHGPLNFMGFVNSVNITGTILRVYYSGVSEAAPDSILVKFKTSSAVAFSKNPCQGHVPSHDDTLIPLVYTGPTLRLLPLETISIPFNTSFVAQNPDLKAIIYDNNLKDIRISATMWTGEQTPILAHNLTAAVKLIHSGTVFARAAFFSTKENKKACTLKLCPSTILLPGGELSLDTSTLPNCFK
  soluble on expression in E. coli: not soluble

## MILLIDNYDSFTFNLEQYLAEFSEVVVKRNDAADLIKIAALADGIVLSPGPGKPSDAGLLEEVVAKFAKEKPLLGICLGHQAIGEVFGGEVKRAAKIRHGKVSTMRQTAGAIFANLPEEMPVMRYHSLIVDKNTLPDVLEVLAIATDDSEVMAMKVKDYPVYGLQFHPESIGTNDGKQMMENFIHIVEGARENGNLTTKSI
  soluble on expression in E. coli: not soluble

## MSETRRNQSSDEQIEKSEIQHQRVVIENSHGEKLVGVLHDTGSTETVVICHGFRSSKNRIPMLTIASFFERAMISSFRFDFAGNGESQGSFQYGNYRREVEDLRSVLQHLRGVNRVISAIIGHSKGGNVVLLYAAKYNDVQTVVNISGRFFLDRGIEFRLGKDYFKRIKDNGFIDVSNRKGKFEYRVTEESLMDRLTTNAHEACLSIRENCRVLTVHGSNDRIVHVTEASEFAKQIKNHKLYVIEGADHEFTSHQHQLASIVLSFFKLDPKKDDESGDISTSNQDSMRSVVPITSRI
  soluble on expression in E. coli: soluble
